Measurements as given in US8822645B2, “Prostaglandin E2 dual variable domain immunoglobulins and uses thereof” (AbbVie Inc., priority 2008, dated 2014).

Key:
[1] = test system: desired target antigen; assay: Direct Bind ELISA of parent antibodies and DVD-Ig constructs; assay type: binding; settings: C-terminal variable domain NGF, read-out: Direct Bind ELISA C-terminal VD EC50
Method: Enzyme Linked Immunosorbent Assays to screen for antibodies that bind a desired target antigen were performed as follows. […] Plates were washed four times with PBS containing 0.02% Tween 20. Plates were blocked by the addition of 300 μL/well blocking solution (non-fat dry milk powder, various retail suppliers, diluted to 2% in PBS) for ½ hour at room temperature. Plates were washed four times after blocking with PBS containing 0.02% Tween 20.
Wells were washed four times with PBS containing 0.02% Tween 20.
One hundred microliters of antibody or DVD-Ig preparations diluted in blocking solution as described above was added to the desired target antigen plate or desired target antigen/FC fusion plate or the anti-polyHistidine antibody/His tagged desired target antigen plate prepared as described above and incubated for 1 hour at room temperature.
Plates were washed 4 times with PBS containing 0.02% Tween 20.
One hundred microliters of enhanced TMB solution (Neogen Corp. #308177, K Blue, Lexington, Ky.) was added to each well and incubated for 10 minutes at room temperature. The reaction was stopped by the addition of 50 μL 1N sulphuric acid. Plates were read spectrophotometrically at a wavelength of 450 nm.

[2] = PGE2-biotinamide ELISA (PGE2 binding); settings: PGE2 VD in N-terminal position, read-out: Direct Bind ELISA N-terminal VD EC50
How it was run: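 Antibody or DVD-Ig (1 µg/ml) captured on anti-host Fc IgG-coated plates for 1 h at room temperature, then titrated with PGE2-biotinamide serially diluted from 30 nM for 1 h. Binding detected with streptavidin-polyHRP and TMB, absorbance read at 450 nm; EC50 from the titration curve.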

[3] = test system: PGE2 / human EP4 receptor in HEK293 Gα16 cells; assay: EP4 bioassay (Ca++ flux, neutralization of PGE2); assay type: cell-based; settings: PGE2 VD in N-terminal position; EP4 bioassay, Ca++ flux; read-out: N-terminal VD PGE2 Neutralization EC50
How it was run: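 Ca++ flux (FLIPR) in HEK293 Gα16 cells stably expressing human EP4, loaded with Ca++-sensitive dye for 90 min. PGE2, alone or pre-incubated with anti-PGE2 antibody, DVD-Ig or isotype control, was added in FLIPR buffer (HBSS, 20 mM HEPES, 0.1% BSA, 2.5 mM probenecid). EC50 derived from PGE2 dose-response.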

EC50 [1]: > 10000 nM
EC50 [2]: 0.71 nM
B1: DVD163: DVD-Ig construct listed in Table 4 (antibody)
VH: EVQLVQSGAEVKKPGASVKVSCKASGYTFTKYWLGWVRQAPGQGLEWMGDIYPGYDYTHYNEKFKDRVTLTTDTSTSTAYMELRSLRSDDTAVYYCARSDGSSTYWGQGTLVTVSSASTKGPQVQLQESGPGLVKPSETLSLTCTVSGFSLIGYDLNWIRQPPGKGLEWIGIIWGDGTTDYNSAVKSRVTISKDTSKNQFSLKLSSVTAADTAVYYCARGGYWYATSYYFDYWGQGTLVTVSS
VL: DVLMTQTPLSLPVTPGEPASISCTSSQNIVHSNGNTYLEWYLQKPGQSPQLLIYKVSNRFSGVPDRFSGSGSGTDFTLKISRVEAEDVGVYYCFQVSHVPYTFGGGTKVEIKRTVAAPDIQMTQSPSSLSASVGDRVTITCRASQSISNNLNWYQQKPGKAPKLLIYYTSRFHSGVPSRFSGSGSGTDFTFTISSLQPEDIATYYCQQEHTLPYTFGQGTKLEIKR
EC50 [3]: 0.245 nM
